Test results taken from PMC4297517 (Journal of molecular biology, 2014).
Each block holds one binder with its values, some of them ahead of it.

Biological target: ClpB_(E279A,E678A) (E. coli, UniProt P63284 1-857, E279A | E678A)
Assay: fluorescence polarisation

binding result: binds
B1: DnaK_(py-N282A*) (natural protein)
chain: not shown
modifications: N-(1-pyrene)maleimide label (K106C introduced for labeling); degree of labeling between 0.1 and 0.5

binding result: binds
B2: DnaK_(py-Q57A*) (natural protein)
chain: not shown
modifications: N-(1-pyrene)maleimide label (K106C introduced for labeling); degree of labeling between 0.1 and 0.5
